Laboratory results taken from publication PMC10221034 (2023).

Molecular target: wild-type rTpiA (recombinant Streptococcus pneumoniae D39 triosephosphate isomerase) (Streptococcus pneumoniae D39) (UniProt Q04JH4)
Assay: SPR; Biacore X100; rTpiA immobilised on CM5 chip by amine coupling; plasminogen 6.25-100 nM injected, contact time 120 s, 20 µL/min; running buffer 100 mM HEPES pH 7.4, 150 mM NaCl, 3 mM EDTA, 0.005% surfactant P20; apparent constants

Sequence of wild-type rTpiA (recombinant Streptococcus pneumoniae D39 triosephosphate isomerase) (Streptococcus pneumoniae D39) (Q04JH4 2-252): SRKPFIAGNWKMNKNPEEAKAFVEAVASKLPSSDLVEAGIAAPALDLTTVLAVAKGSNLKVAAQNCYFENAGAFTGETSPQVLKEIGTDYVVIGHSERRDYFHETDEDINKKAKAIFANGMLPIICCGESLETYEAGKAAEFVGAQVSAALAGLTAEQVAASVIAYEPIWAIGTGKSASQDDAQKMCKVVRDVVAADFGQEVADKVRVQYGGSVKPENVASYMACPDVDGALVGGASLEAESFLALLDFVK

Work on “human plasma plasminogen (natural protein)” yielded a Kd of 865 nM, a koff of 0.00375 s⁻¹ and a kon of 4340 M⁻¹ s⁻¹.
